Tests used:
Human VSIG4-S-His = biological target: T1, Human VSIG4-S-His (human, UniProt Q9Y279 20-283); assay: BLI (Octet), IgG on AHC sensor, antigen 100 nM
T1 construct: short isoform ECD with His tag; also called hVSIG4-S; VISG4-S-His
T1 sequence: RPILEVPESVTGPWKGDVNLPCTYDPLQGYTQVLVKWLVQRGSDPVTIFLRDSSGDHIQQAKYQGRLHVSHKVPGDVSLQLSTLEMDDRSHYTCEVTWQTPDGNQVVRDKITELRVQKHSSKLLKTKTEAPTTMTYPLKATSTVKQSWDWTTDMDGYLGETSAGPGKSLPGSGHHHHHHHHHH

[1] = biological target: T2, Cynomolgus Monkey VSIG4-L-His (cynomolgus monkey); assay: BLI (Octet), IgG on AHC sensor, antigen 100 nM
T2 construct: ECD with His tag; also called cyVSIG4-L; cyno VSIG4-L-His
T2 chain: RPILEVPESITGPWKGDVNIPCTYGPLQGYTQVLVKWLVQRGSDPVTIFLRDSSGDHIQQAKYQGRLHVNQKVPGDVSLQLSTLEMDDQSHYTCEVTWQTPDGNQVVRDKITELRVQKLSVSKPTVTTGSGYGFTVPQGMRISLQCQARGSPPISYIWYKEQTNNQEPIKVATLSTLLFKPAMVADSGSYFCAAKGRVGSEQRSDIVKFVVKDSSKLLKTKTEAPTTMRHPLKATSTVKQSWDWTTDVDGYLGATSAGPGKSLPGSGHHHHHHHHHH

Human VSIG4-L-His [2] = biological target: T3, Human VSIG4-L-His (human, UniProt Q9Y279 20-283); assay: BLI (Octet), IgG on AHC sensor, antigen 100 nM
T3 construct: long isoform ECD with His tag; also called hVSIG4-L
T3 sequence: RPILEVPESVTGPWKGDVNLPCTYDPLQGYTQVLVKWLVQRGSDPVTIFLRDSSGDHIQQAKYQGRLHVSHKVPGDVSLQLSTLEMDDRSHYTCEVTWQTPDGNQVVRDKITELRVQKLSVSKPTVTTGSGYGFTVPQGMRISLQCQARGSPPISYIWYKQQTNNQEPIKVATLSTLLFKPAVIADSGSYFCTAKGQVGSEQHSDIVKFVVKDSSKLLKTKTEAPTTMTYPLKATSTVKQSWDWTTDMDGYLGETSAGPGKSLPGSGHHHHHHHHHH

[3] = biological target: T2, Cynomolgus Monkey VSIG4-L-His; assay: SPR (FJB)
Human VSIG4-L-His [4] = biological target: T3, Human VSIG4-L-His; assay: SPR (FJB)
[5] = biological target: T4, Human VSIG4-L-CHO (human VSIG4 long isoform on CHO-K1 cells) (human, UniProt Q9Y279 20-399); assay: flow cytometry (FJB), 200 nM mAb, huVSIG4-L CHO-K1 over parental CHO-K1
T4 construct: also called hVSIG4-L (flow cytometry)
T4 sequence: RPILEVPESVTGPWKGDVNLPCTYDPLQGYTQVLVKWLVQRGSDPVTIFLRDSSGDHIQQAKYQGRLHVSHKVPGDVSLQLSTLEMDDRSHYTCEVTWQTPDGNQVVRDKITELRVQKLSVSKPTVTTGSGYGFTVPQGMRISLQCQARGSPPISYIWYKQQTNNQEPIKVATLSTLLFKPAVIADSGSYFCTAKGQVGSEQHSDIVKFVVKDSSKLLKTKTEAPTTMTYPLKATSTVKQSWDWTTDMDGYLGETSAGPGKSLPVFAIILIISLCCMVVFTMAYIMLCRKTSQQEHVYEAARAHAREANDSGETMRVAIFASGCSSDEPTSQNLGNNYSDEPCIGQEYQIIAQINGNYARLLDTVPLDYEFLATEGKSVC

Human VSIG4-L-Fc [6] = biological target: T5, Human VSIG4-L-Fc (human); assay: ligand blocking of C3b, IgG
T5 construct: also called hVSIG4-L-Fc; hVSIG4-L

Human VSIG4-L-Fc [7] = biological target: T5, Human VSIG4-L-Fc; assay: BLI binning on hVSIG4-L-Fc, competitor 15A06 first;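 also: normalized to binding of second antibody without first competitor antibody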
Human VSIG4-L-Fc [8] = biological target: T5, Human VSIG4-L-Fc; assay: BLI binning on hVSIG4-L-Fc, competitor 14C05 first;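 also: normalized to binding of second antibody without first competitor antibody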
Human VSIG4-L-Fc [9] = biological target: T5, Human VSIG4-L-Fc; assay: BLI binning on hVSIG4-L-Fc, competitor 16E03 first;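 also: normalized to binding of second antibody without first competitor antibody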
[10] = biological target: T4, Human VSIG4-L-CHO (human VSIG4 long …); assay: flow cytometry, CHO-K1 cells expressing hVSIG4-L
[11] = biological target: T4, Human VSIG4-L-CHO (human VSIG4 long …); assay: flow cytometry (FJB), 200 nM mAb, huVSIG4-L CHO-K1 cells
Human VSIG4-L-Fc [12] = biological target: T5, Human VSIG4-L-Fc; assay: ligand competition ELISA (FJB), blocked ligand iC3b
Human VSIG4-L-Fc [13] = biological target: T5, Human VSIG4-L-Fc; assay: BLI binning on hVSIG4-L-Fc, competitor 14D12 first;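 also: normalized to binding of second antibody without first competitor antibody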
Human VSIG4-L-Fc [14] = biological target: T5, Human VSIG4-L-Fc; assay: BLI binning on hVSIG4-L-Fc, competitor 15C03 first;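 also: normalized to binding of second antibody without first competitor antibody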
Human VSIG4-L-Fc [15] = biological target: T5, Human VSIG4-L-Fc; assay: ligand competition ELISA (FJB), blocked ligand C3b
[16] = biological target: T2, Cynomolgus Monkey VSIG4-L-His; assay: BLI, IgG on AHC sensor, antigen 100 nM
Human VSIG4-L-His [17] = biological target: T3, Human VSIG4-L-His; assay: BLI, IgG on AHC sensor, antigen 100 nM
Human VSIG4-L-Fc [18] = biological target: T5, Human VSIG4-L-Fc; assay: BLI binning on hVSIG4-L-Fc, competitor 13H11 first;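 also: normalized to binding of second antibody without first competitor antibody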
Human VSIG4-L-Fc [19] = biological target: T5, Human VSIG4-L-Fc; assay: BLI binning on hVSIG4-L-Fc, competitor 12A12 first;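 also: normalized to binding of second antibody without first competitor antibody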
Human VSIG4-L-Fc [20] = biological target: T5, Human VSIG4-L-Fc; assay: BLI binning on hVSIG4-L-Fc, competitor 16E10 first;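 also: normalized to binding of second antibody without first competitor antibody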
Human VSIG4-L-Fc [21] = biological target: T5, Human VSIG4-L-Fc; assay: ELISA, IgG 50 nM on coated antigen;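 also: Mouse-human chimeric IgG4 antibodies incubated 1 h on plate-coated VSIG4 proteins, bound IgG detected with HRP-labelled anti-human IgG, irrelevant antibody and protein as specificity controls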
[22] = biological target: T2, Cynomolgus Monkey VSIG4-L-His; assay: ELISA, IgG 50 nM on coated antigen;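 also: Mouse-human chimeric IgG4 antibodies incubated 1 h on plate-coated VSIG4 proteins, bound IgG detected with HRP-labelled anti-human IgG, irrelevant antibody and protein as specificity controls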
Mouse VSIG4-His = biological target: T6, Mouse VSIG4-His (mouse); assay: ELISA, IgG 50 nM on coated antigen;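 also: Mouse-human chimeric IgG4 antibodies incubated 1 h on plate-coated VSIG4 proteins, bound IgG detected with HRP-labelled anti-human IgG, irrelevant antibody and protein as specificity controls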
T6 construct: ECD with His tag; also called mVSIG4
T6 chain: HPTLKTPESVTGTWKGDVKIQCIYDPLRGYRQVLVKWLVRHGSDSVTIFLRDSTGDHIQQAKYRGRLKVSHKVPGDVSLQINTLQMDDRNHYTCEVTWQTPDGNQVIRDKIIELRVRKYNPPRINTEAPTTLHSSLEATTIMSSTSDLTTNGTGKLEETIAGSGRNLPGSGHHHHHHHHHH

Human VSIG4-S-Fc = biological target: T7, Human VSIG4-S-Fc (human); assay: ELISA, IgG 50 nM on coated antigen;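 also: Mouse-human chimeric IgG4 antibodies incubated 1 h on plate-coated VSIG4 proteins, bound IgG detected with HRP-labelled anti-human IgG, irrelevant antibody and protein as specificity controls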
T7 construct: short isoform ECD fused to human Fc1; also called hVSIG4-S

Human VSIG4-L-Fc [23] = biological target: T5, Human VSIG4-L-Fc; assay: ligand blocking of iC3b, IgG
Human VSIG4-L-Fc [24] = biological target: T5, Human VSIG4-L-Fc; assay: BLI binning on hVSIG4-L-Fc, competitor 12A08 first;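 also: normalized to binding of second antibody without first competitor antibody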
Human VSIG4-L-Fc [25] = biological target: T5, Human VSIG4-L-Fc; assay: BLI binning on hVSIG4-L-Fc, competitor 15C04 first;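 also: normalized to binding of second antibody without first competitor antibody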

T5 sequence (chain, as listed by the source limits assumed): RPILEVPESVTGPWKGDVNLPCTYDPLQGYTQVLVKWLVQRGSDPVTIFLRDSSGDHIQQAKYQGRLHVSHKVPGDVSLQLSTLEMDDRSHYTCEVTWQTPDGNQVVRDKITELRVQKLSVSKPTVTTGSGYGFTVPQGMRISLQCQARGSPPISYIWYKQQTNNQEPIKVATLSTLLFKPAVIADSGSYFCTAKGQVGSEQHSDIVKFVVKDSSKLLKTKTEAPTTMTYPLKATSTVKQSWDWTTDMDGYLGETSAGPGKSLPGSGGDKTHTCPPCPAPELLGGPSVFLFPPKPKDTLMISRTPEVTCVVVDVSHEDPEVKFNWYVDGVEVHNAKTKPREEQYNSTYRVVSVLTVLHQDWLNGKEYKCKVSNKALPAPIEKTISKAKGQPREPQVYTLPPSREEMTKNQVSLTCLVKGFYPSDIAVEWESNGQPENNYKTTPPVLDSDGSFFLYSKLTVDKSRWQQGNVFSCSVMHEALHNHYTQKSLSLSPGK
T7 sequence (chain, as listed by the source limits assumed): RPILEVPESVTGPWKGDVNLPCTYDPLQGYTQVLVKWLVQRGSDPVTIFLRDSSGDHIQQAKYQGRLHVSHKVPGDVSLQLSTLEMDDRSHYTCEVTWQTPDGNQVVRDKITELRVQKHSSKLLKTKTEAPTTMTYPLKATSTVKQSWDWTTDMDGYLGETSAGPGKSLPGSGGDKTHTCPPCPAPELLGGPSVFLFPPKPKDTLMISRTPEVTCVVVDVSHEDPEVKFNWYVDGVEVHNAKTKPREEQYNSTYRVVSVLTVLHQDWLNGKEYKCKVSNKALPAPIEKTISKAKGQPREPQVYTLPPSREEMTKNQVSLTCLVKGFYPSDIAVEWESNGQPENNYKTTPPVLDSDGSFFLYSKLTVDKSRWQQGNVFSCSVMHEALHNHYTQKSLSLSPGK

B1: 16E10 mouse/human chimeric IgG4 (S228P) kappa (antibody, V domains shown)
VH: QVQLQQSGAELVRPGTSVKISCKASGYTFTNYWLGWVKQRPGHGLEWIGDIYPGGGYTNYNEKFKGKATLTADTSSSTAYMQLSSLTSEDSAVYFCAKFYYYGSSYYFDSWGQGTTLTVSS
VL: DIVLTQSPSSLSVSAGEKVTLSCKSSQSLLNSGNQENYLAWYQQKPGQPPKLLIYGASTRESGVPDRFTGSGSGTDFTLTISSVQAEDLAVYYCQNDHSYPLTFGAGTKLELKR
Q: What does the source list for B1?
A: Kd (Human VSIG4-S-His): 75.3 nM; Kd [1]: 37.6 nM; Kd (Human VSIG4-L-His [2]): 68.5 nM; Kd [3]: 1.3 nM; Kd (Human VSIG4-L-His [4]): 66.1 nM; Binding (200 nM) Fold-Over-Parental [5]: 50 fold; Percent Blocking C3b (Human VSIG4-L-Fc [6]): 33%; normalized maximum binding nm shift (Human VSIG4-L-Fc [7]): 0.77 normalized; normalized maximum binding nm shift (Human VSIG4-L-Fc [8]): 0.74 normalized; normalized maximum binding nm shift (Human VSIG4-L-Fc [9]): 0.1 normalized; EC50 [10]: 1 nM; Binding (200 nM) MFI [11]: 14700 MFI; IC50 (Human VSIG4-L-Fc [12]): 3.6 nM; normalized maximum binding nm shift (Human VSIG4-L-Fc [13]): 0.69 normalized; normalized maximum binding nm shift (Human VSIG4-L-Fc [14]): 0.88 normalized; IC50 (Human VSIG4-L-Fc [15]): 0.7 nM; KD relative to parental chimera [16]: 1 fold; KD relative to parental chimera (Human VSIG4-L-His [17]): 1 fold; normalized maximum binding nm shift (Human VSIG4-L-Fc [18]): 0.65 normalized; normalized maximum binding nm shift (Human VSIG4-L-Fc [19]): 0.25 normalized; normalized maximum binding nm shift (Human VSIG4-L-Fc [20]): 0.15 normalized; ELISA OD450 (Human VSIG4-L-Fc [21]): 4.44 OD450; ELISA OD450 [22]: 4.5 OD450; ELISA OD450 (Mouse VSIG4-His): 0.048 OD450; ELISA OD450 (Human VSIG4-S-Fc): 2.04 OD450; Percent Blocking iC3b (Human VSIG4-L-Fc [23]): 72%; normalized maximum binding nm shift (Human VSIG4-L-Fc [24]): 0 normalized; normalized maximum binding nm shift (Human VSIG4-L-Fc [25]): 0.89 normalized

B2: 14D12 mouse/human chimeric IgG4 (S228P) kappa (antibody, V domains shown)
VH: QIQLVQSGPELKKPGETVKISCKASGYTFTNYGMNWVKQTPGKGLKWMGLINTYTGEPTYADDFKGRFAFSLETSASTAYLQINNLKNEDMATYFCARERIYGYLHYFDYWGQGTTLTVSS
VL: DVVMTQTPASLAVSLGQRATISCKASQSVDYDGDSYMNWYQQKPGQPPKLLIYAASNLESGIPARFSGSGSGTDFTLNIHPVEEEDAATYYCQQSNEDPRTFGGGTKLEIKR
Q: With B2 as the binder, how does the Kd (Human VSIG4-S-His) read?
A: Its Kd is 28.7 nM.

Q: What about the Kd [1] of the same binder?
A: The Kd was 16.1 nM.

Q: And the Kd (Human VSIG4-L-His [2])?
A: Its Kd is 21.5 nM.

Q: And the Kd [3]?
A: The Kd was 4.4 nM.

Q: What about the Kd (Human VSIG4-L-His [4]) of the same binder?
A: Its Kd is 10.5 nM.

Q: And the “Binding (200 nM) Fold-Over-Parental” value [5]?
A: Its value is 112 fold.

Q: And the “Percent Blocking C3b” value (Human VSIG4-L-Fc [6])?
A: The value was 97%.

Q: And the “normalized maximum binding nm shift” value (Human VSIG4-L-Fc [7])?
A: Its value is 0.75 normalized.

Q: And the “normalized maximum binding nm shift” value (Human VSIG4-L-Fc [8])?
A: The value was 0.12 normalized.

Q: And the “normalized maximum binding nm shift” value (Human VSIG4-L-Fc [9])?
A: Its value is 0.68 normalized.

Q: And the EC50 [10]?
A: Its EC50 is 2.8 nM.

Q: What about the “Binding (200 nM) MFI” value [11] of the same binder?
A: Its value is 36400 MFI.

Q: What about the IC50 (Human VSIG4-L-Fc [12]) of the same binder?
A: The IC50 was 0.6 nM.

Q: What about the “normalized maximum binding nm shift” value (Human VSIG4-L-Fc [13]) of the same binder?
A: Its value is 0.08 normalized.

Q: And the “normalized maximum binding nm shift” value (Human VSIG4-L-Fc [14])?
A: The value was 0.59 normalized.

Q: And the IC50 (Human VSIG4-L-Fc [15])?
A: Its IC50 is 0.8 nM.

Q: And the “KD relative to parental chimera” value [16]?
A: The value was 1 fold.

Q: What about the “KD relative to parental chimera” value (Human VSIG4-L-His [17]) of the same binder?
A: Its value is 1 fold.

Q: And the “normalized maximum binding nm shift” value (Human VSIG4-L-Fc [18])?
A: Its value is 0.69 normalized.

Q: What about the “normalized maximum binding nm shift” value (Human VSIG4-L-Fc [19]) of the same binder?
A: Its value is 0.75 normalized.

Q: What about the “normalized maximum binding nm shift” value (Human VSIG4-L-Fc [20]) of the same binder?
A: Its value is 0.93 normalized.

Q: What about the “ELISA OD450” value (Human VSIG4-L-Fc [21]) of the same binder?
A: Its value is 4.53 OD450.

Q: And the “ELISA OD450” value [22]?
A: The value was 4.52 OD450.

Q: And the “ELISA OD450” value (Mouse VSIG4-His)?
A: Its value is 0.05 OD450.

Q: What about the “ELISA OD450” value (Human VSIG4-S-Fc) of the same binder?
A: Its value is 3.43 OD450.

Q: What about the “Percent Blocking iC3b” value (Human VSIG4-L-Fc [23]) of the same binder?
A: The value was 98%.

Q: And the “normalized maximum binding nm shift” value (Human VSIG4-L-Fc [24])?
A: The value was 0.73 normalized.

Q: And the “normalized maximum binding nm shift” value (Human VSIG4-L-Fc [25])?
A: The value was 0.8 normalized.

Source: US20230348603A1 (VERSEAU THERAPEUTICS, published 2023)
